For assay [1], the target named is T1, mutated human CRTH2 with amino acid substitution (Homo sapiens, UniProt Q9Y5Y4, D171A/I173A/T172A).
T1 construct: inserting genes encoding various mutants with amino acid substitution obtained by deleting termination codons; expressed in transfected cells; host or cells: CHO-S cells (Lifetechnologies), transient (phmAG1-MNLinker vector)
T1 sequence (Q9Y5Y4 1-395 D171A/T172A/I173A): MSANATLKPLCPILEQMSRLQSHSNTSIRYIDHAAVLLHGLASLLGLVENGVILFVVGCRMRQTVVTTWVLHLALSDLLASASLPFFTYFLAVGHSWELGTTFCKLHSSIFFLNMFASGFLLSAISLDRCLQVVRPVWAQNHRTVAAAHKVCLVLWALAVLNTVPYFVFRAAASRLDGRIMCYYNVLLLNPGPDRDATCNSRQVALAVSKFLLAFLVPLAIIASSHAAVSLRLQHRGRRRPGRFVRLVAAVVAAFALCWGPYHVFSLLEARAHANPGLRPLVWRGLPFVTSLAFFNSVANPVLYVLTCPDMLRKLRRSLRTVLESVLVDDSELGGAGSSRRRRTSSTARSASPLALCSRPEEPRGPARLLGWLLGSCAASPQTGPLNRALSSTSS
Put plainly: Epitope analysis using CHO-S cells which express mutated human CRTH2 with amino acid substitution. The class given is binding. The conditions noted are these: mutant D171A, T172A, and I173A; antibody 10 μg/mL; relative to wild-type = 100%. Put shortly: (§1)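 CHO-S cells transiently expressing alanine-substituted human CRTH2 extracellular mutants, C-terminally Azami-Green tagged, 24 h post-transfection. Antibodies at 10 μg/mL, 4 °C 1 h, then Alexa647 anti-IgG secondary 4 °C 1 h; flow cytometry on Azami-Green-positive cells. Reactivity = Alexa647 intensity divided by Azami-Green intensity.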

Assay [2] addresses T2, mutated human CRTH2 with amino acid substitution (Homo sapiens, UniProt Q9Y5Y4, R195A).
T2 construct: inserting genes encoding various mutants with amino acid substitution obtained by deleting termination codons; expressed in transfected cells; host or cells: CHO-S cells (Lifetechnologies), transient (phmAG1-MNLinker vector)
T2 sequence (Q9Y5Y4 1-395 R195A): T1 sequence (Q9Y5Y4 1-395 D171A/T172A/I173A) with A171D, A172T, A173I, R195A
The assay is described as above. The class given is binding. The conditions noted are these: mutant R195A; antibody 10 μg/mL; relative to wild-type = 100%. Put shortly:
as §1

Positions count from the first letter of the chain named.

B1: LV0HV1: humanized Lym2 antibody, VL LV0 (SEQ ID NO: 33), VH HV1 (SEQ ID NO: 51) (antibody, V domains shown)
VH: EVQLVESGGGVVQPGRSLRLSCAASGFTFSNYYMAWVRQAPGKGLEWVATISYDGSSTYYRDSVKGRFTISRDNAKNSLYLQMNSLRAEDTATYYCARHRGYYYSGAGYFDYWGQGTMVTVSS
VL: DIVMTQTPLSLPVTPGESASISCRSSQSLEYSDGYTYLEWYLQKPGQSPQVLIYGVSNRFSGVPDRFSGSGSGTDFTLKISRVEAEDVGVYYCFQATHDPLTFGQGTKLEIK
On to B1, for which the “reactivity against cells expressing mutated human CRTH2” value is “greatly decreased” in assay [1] and “lost” in assay [2].

(Values after US10100120B2, “Antibody which specifically binds to human CRTH2” (KYOWA HAKKO KIRIN CO., LTD, priority 2015, dated 2018).)
